Laboratory results as given in patent US20210380688A1 (SHENZHEN UNIVERSITY, published 2021).

Molecular target: ROR2 mutant with the deletion of the d-Kringle region, flag-tagged (B4) (human, UniProt Q01974 34-943, limits assumed)
Assay: western blot of lysate of transfected 293T cells
Description: In order to find the epitope bound by the B16 chimeric antibody, flag-tagged mutant plasmids (B1-B8) from different regions of the ROR2 protein were constructed (The Flag tag is a polypeptide fragment composed of eight hydrophilic amino acids […], which can be fused with proteins without occupying protein epitopes or structural domains, avoiding affecting the function, secretion, and transport properties of the protein. The flag tag is used to mark the target protein, if the tag is expressed, the target protein will also be expressed). The plasmid used is pcDNA3.0 plasmid. The full-length sequence of human-derived ROR2 protein includes SP region, Ig-like region, CRD region, Kringle region, Kinase region, S/T1 region, Pro region and S/T2 region. Each part and the corresponding function can refer to Debebe Z, Rathmell W K. Ror2 as a Therapeutic Target in Cancer [J]. Pharmacology & Therapeutics, 2015, 150:143-148. […]
After 48 hours of expression, the cells transfected with mutant plasmids in different regions of ROR2 were lysed. By western blot, the expression of ROR2 protein was detected with B16 chimeric antibody, Flag antibody and Santa Cruz's ROR2 antibody (Cat. No.: sc-374174).

Sequence of ROR2 mutant with the deletion of the d-Kringle region, flag-tagged (B4) (Q01974 other isoform, or with tags, fused parts or gaps mutant limits assumed): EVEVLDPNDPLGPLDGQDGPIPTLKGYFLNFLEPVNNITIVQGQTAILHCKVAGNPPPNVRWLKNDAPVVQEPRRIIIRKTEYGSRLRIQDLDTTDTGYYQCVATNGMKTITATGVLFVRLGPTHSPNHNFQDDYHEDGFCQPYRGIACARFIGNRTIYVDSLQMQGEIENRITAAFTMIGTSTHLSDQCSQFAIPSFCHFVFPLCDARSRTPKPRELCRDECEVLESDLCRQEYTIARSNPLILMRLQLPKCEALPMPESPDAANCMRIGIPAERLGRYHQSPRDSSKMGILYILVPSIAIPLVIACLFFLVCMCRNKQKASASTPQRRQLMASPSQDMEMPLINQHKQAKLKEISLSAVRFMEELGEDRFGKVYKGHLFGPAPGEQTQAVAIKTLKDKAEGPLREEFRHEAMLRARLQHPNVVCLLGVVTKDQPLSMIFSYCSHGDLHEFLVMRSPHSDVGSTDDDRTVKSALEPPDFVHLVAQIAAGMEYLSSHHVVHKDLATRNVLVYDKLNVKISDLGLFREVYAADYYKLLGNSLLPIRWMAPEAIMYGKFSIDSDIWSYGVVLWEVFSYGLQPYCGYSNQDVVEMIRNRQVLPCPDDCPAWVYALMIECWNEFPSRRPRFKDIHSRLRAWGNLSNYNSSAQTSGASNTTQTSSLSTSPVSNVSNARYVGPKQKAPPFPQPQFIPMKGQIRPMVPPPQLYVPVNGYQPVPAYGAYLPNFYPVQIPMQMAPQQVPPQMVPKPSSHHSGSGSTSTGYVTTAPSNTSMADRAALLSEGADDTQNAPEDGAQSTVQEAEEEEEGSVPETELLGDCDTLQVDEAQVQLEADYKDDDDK

binding result: no binding
B1: B16 chimeric antibody (antibody, human IgG1, kappa, V domains shown)
VH: QLQLQQSGPELVKPGASVRMSCKAAGYTFTSYLMHWVKQRPGQDLEWIGYINPYNDGTKYNEKFKDKATLTSDKSSSTVYMELSSLTSEDSAVYYCARSDVYYGVRFAYWGQGTLVTVSA
VL: DIVLTQSPAIMSASPGEKVTMTCSASSSVTYTYWYQQKPGSSPRLLIYDTSNLASGVPVRFSGSGSGTSYSLTISRMEAEDAATYYCQQWSSYPFTFGSGTKLEIKR
notes: also called anti-ROR2 monoclonal antibody B16 chimeric antibody; B16 antibody
